Sequences and labels used below:
B1: Receptor-interacting serine/threonine-protein kinase 2, residues 438 to 518; numbered along this chain, O43353 (parent)
chain: QWIQSKREDIVNQMTEACLNQSLDALLSRDLIMKEDYELVSTKPTRTSKVRQLLDTTDIQGEEFAKVIVQKLKDNKQMGLQ

± gives the uncertainty stated by the source.

In the series the parent is B1. In words: abundance fitness (aPCA) (normalised: wild type 0, dead -1); higher = more abundant; growth selection in yeast, the domain comes from the species named. Particulars: Homo sapiens.
Consider QWIQSKRESIVNQMTEACLNQSLDALLSRDLIMKEDYELVSTKPTRTSKVRQLLDTTDIQGEEFAKVIVQKLKDNKQMGLQ [D9S], for which the abundance fitness is -0.303 ± 0.07.
Next, QWIQSKREMIVNQMTEACLNQSLDALLSRDLIMKEDYELVSTKPTRTSKVRQLLDTTDIQGEEFAKVIVQKLKDNKQMGLQ [D9M]: -0.328 ± 0.19; QWIQSKREWIVNQMTEACLNQSLDALLSRDLIMKEDYELVSTKPTRTSKVRQLLDTTDIQGEEFAKVIVQKLKDNKQMGLQ [D9W]: -0.147 ± 0.088; QWIQSKREQIVNQMTEACLNQSLDALLSRDLIMKEDYELVSTKPTRTSKVRQLLDTTDIQGEEFAKVIVQKLKDNKQMGLQ [D9Q]: -0.151 ± 0.077.
With QWIQSKREKIVNQMTEACLNQSLDALLSRDLIMKEDYELVSTKPTRTSKVRQLLDTTDIQGEEFAKVIVQKLKDNKQMGLQ [D9K] the figure was -0.437 ± 0.15; with QWIQSKREYIVNQMTEACLNQSLDALLSRDLIMKEDYELVSTKPTRTSKVRQLLDTTDIQGEEFAKVIVQKLKDNKQMGLQ [D9Y], -0.107 ± 0.15; with QWIQSKREPIVNQMTEACLNQSLDALLSRDLIMKEDYELVSTKPTRTSKVRQLLDTTDIQGEEFAKVIVQKLKDNKQMGLQ [D9P], -0.898 ± 0.15.
With QWIQSKREVIVNQMTEACLNQSLDALLSRDLIMKEDYELVSTKPTRTSKVRQLLDTTDIQGEEFAKVIVQKLKDNKQMGLQ [D9V] the figure was -0.172 ± 0.078; with QWIQSKRENIVNQMTEACLNQSLDALLSRDLIMKEDYELVSTKPTRTSKVRQLLDTTDIQGEEFAKVIVQKLKDNKQMGLQ [D9N], -0.731 ± 0.27; with QWIQSKRETIVNQMTEACLNQSLDALLSRDLIMKEDYELVSTKPTRTSKVRQLLDTTDIQGEEFAKVIVQKLKDNKQMGLQ [D9T], -0.331 ± 0.098.
As for QWIQSKREIIVNQMTEACLNQSLDALLSRDLIMKEDYELVSTKPTRTSKVRQLLDTTDIQGEEFAKVIVQKLKDNKQMGLQ [D9I], the abundance fitness turned out to be 0.255 ± 0.16.
With QWIQSKREDVVNQMTEACLNQSLDALLSRDLIMKEDYELVSTKPTRTSKVRQLLDTTDIQGEEFAKVIVQKLKDNKQMGLQ [I10V] the figure was -0.628 ± 0.12.
Take QWIQSKREDCVNQMTEACLNQSLDALLSRDLIMKEDYELVSTKPTRTSKVRQLLDTTDIQGEEFAKVIVQKLKDNKQMGLQ [I10C]: the abundance fitness is -0.712 ± 0.17.
As for QWIQSKREDTVNQMTEACLNQSLDALLSRDLIMKEDYELVSTKPTRTSKVRQLLDTTDIQGEEFAKVIVQKLKDNKQMGLQ [I10T], the abundance fitness was -0.697 ± 0.15.
Next, QWIQSKREDGVNQMTEACLNQSLDALLSRDLIMKEDYELVSTKPTRTSKVRQLLDTTDIQGEEFAKVIVQKLKDNKQMGLQ [I10G]: -0.764 ± 0.11; QWIQSKREDNVNQMTEACLNQSLDALLSRDLIMKEDYELVSTKPTRTSKVRQLLDTTDIQGEEFAKVIVQKLKDNKQMGLQ [I10N]: -0.476 ± 0.12.
With QWIQSKREDQVNQMTEACLNQSLDALLSRDLIMKEDYELVSTKPTRTSKVRQLLDTTDIQGEEFAKVIVQKLKDNKQMGLQ [I10Q], the abundance fitness is -0.541 ± 0.16.
Take QWIQSKREDYVNQMTEACLNQSLDALLSRDLIMKEDYELVSTKPTRTSKVRQLLDTTDIQGEEFAKVIVQKLKDNKQMGLQ [I10Y]: the abundance fitness was -0.864 ± 0.28.
Regarding QWIQSKREDFVNQMTEACLNQSLDALLSRDLIMKEDYELVSTKPTRTSKVRQLLDTTDIQGEEFAKVIVQKLKDNKQMGLQ [I10F], the abundance fitness is -0.877 ± 0.47.
Consider QWIQSKREDWVNQMTEACLNQSLDALLSRDLIMKEDYELVSTKPTRTSKVRQLLDTTDIQGEEFAKVIVQKLKDNKQMGLQ [I10W], for which the abundance fitness was -0.968 ± 0.29.
With QWIQSKREDHVNQMTEACLNQSLDALLSRDLIMKEDYELVSTKPTRTSKVRQLLDTTDIQGEEFAKVIVQKLKDNKQMGLQ [I10H] the figure was -0.862 ± 0.23; with QWIQSKREDMVNQMTEACLNQSLDALLSRDLIMKEDYELVSTKPTRTSKVRQLLDTTDIQGEEFAKVIVQKLKDNKQMGLQ [I10M], -0.421 ± 0.23.
Take QWIQSKREDAVNQMTEACLNQSLDALLSRDLIMKEDYELVSTKPTRTSKVRQLLDTTDIQGEEFAKVIVQKLKDNKQMGLQ [I10A]: the abundance fitness is -1.04 ± 0.31.
With QWIQSKREDPVNQMTEACLNQSLDALLSRDLIMKEDYELVSTKPTRTSKVRQLLDTTDIQGEEFAKVIVQKLKDNKQMGLQ [I10P] the figure was -0.622 ± 0.14; with QWIQSKREDSVNQMTEACLNQSLDALLSRDLIMKEDYELVSTKPTRTSKVRQLLDTTDIQGEEFAKVIVQKLKDNKQMGLQ [I10S], -0.618 ± 0.098.
With QWIQSKREDLVNQMTEACLNQSLDALLSRDLIMKEDYELVSTKPTRTSKVRQLLDTTDIQGEEFAKVIVQKLKDNKQMGLQ [I10L] the figure was -0.264 ± 0.087.
Next, QWIQSKREDKVNQMTEACLNQSLDALLSRDLIMKEDYELVSTKPTRTSKVRQLLDTTDIQGEEFAKVIVQKLKDNKQMGLQ [I10K]: -0.619 ± 0.16.
Take QWIQSKREDIWNQMTEACLNQSLDALLSRDLIMKEDYELVSTKPTRTSKVRQLLDTTDIQGEEFAKVIVQKLKDNKQMGLQ [V11W]: the abundance fitness is -1.03 ± 0.21.
Turning to QWIQSKREDIGNQMTEACLNQSLDALLSRDLIMKEDYELVSTKPTRTSKVRQLLDTTDIQGEEFAKVIVQKLKDNKQMGLQ [V11G], the abundance fitness is -0.553 ± 0.063.
Next, QWIQSKREDICNQMTEACLNQSLDALLSRDLIMKEDYELVSTKPTRTSKVRQLLDTTDIQGEEFAKVIVQKLKDNKQMGLQ [V11C]: -0.288 ± 0.09.
With QWIQSKREDIPNQMTEACLNQSLDALLSRDLIMKEDYELVSTKPTRTSKVRQLLDTTDIQGEEFAKVIVQKLKDNKQMGLQ [V11P] the figure was -0.503 ± 0.087.
Next, QWIQSKREDIANQMTEACLNQSLDALLSRDLIMKEDYELVSTKPTRTSKVRQLLDTTDIQGEEFAKVIVQKLKDNKQMGLQ [V11A]: -0.49 ± 0.075.
For QWIQSKREDIRNQMTEACLNQSLDALLSRDLIMKEDYELVSTKPTRTSKVRQLLDTTDIQGEEFAKVIVQKLKDNKQMGLQ [V11R], the abundance fitness is -0.534 ± 0.081.
With QWIQSKREDIENQMTEACLNQSLDALLSRDLIMKEDYELVSTKPTRTSKVRQLLDTTDIQGEEFAKVIVQKLKDNKQMGLQ [V11E] the figure was -0.376 ± 0.11.
